Results taken from patent US20130012693.

What was measured:
[1] = target: beta-NGF (Homo sapiens) (UniProt P01138); assay: cell_activity; conditions: PC12 neurite growth, 0.38 nM NGF
[2] = target: beta-NGF (Homo sapiens) (UniProt P01138); assay: filter; conditions: BndU at Z' (n) positions [n positions 30,37,38,43,44,45,51,52,54 = modified dU]; SB17T-0.002, 37 C; Zorbax resin capture

beta-NGF (Homo sapiens), sequence (P01138 122-241): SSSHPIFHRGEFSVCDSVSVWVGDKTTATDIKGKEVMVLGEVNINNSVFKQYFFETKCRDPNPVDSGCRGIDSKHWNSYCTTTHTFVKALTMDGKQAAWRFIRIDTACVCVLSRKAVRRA

| Sequence | IC50 ([1]; BndU at Z' (n) positions, 3'-idT in cell assays [n positions 3,10,11,16,17,18,24,25,27 = modified dU]) | IC50 ([1]; BndU at Z' (n) positions [n positions 30,37,38,43,44,45,51,52,54 = modified dU], 3'-idT) | Kd [2] |
| --- | --- | --- | --- |
| CATGAGGACTTGGGGTTTAGCCGTTGTG [2426-66-50] | 1 nM |  |  |
| GAGTGACCGTCTGCCTGCAGCGGGACACATGAGGACTTGGGGTTTAGCCGTTGTGGCACAGAGAAGAAACAAGACC [2426-66] |  | 2 nM | 5 nM |
